What was measured:
Experiment in all cases: cell-based or functional assay
[1] = molecular target: Env of HIV isolate 6101.10 (clade B) (HIV)
[2] = molecular target: Env of HIV isolate 57128.vrc15 (clade D) (HIV)
[3] = molecular target: HIV Env of isolate A07412M1.vrc12 (HIV)
[4] = molecular target: Env of HIV isolate 271-11 (clade AG) (HIV)
[5] = molecular target: Env of HIV isolate SS1196.01 (clade B) (HIV)
[6] = molecular target: Env of HIV isolate T251-18 (clade AG) (HIV)
[7] = molecular target: HIV Env of isolate MW965.26 (HIV)
[8] = molecular target: HIV Env of isolate A03349M1.vrc4a (HIV)
[9] = molecular target: Env of HIV isolate 247-23 (clade D) (HIV)
[10] = molecular target: Env of HIV isolate 191821.E6.1 (clade D) (HIV)
[11] = molecular target: Env of HIV isolate ZM249.1 (clade C) (HIV)
[12] = molecular target: HIV Env of isolate ZM106.9 (HIV)
[13] = molecular target: Env of HIV isolate MI369.A5 (clade A) (HIV)
[14] = molecular target: HIV Env of isolate 3637.v5.c3 (HIV)
[15] = molecular target: Env of HIV isolate Bal.01 (clade B) (HIV)
[16] = molecular target: Env of HIV isolate T278-50 (clade AG) (HIV)
[17] = molecular target: Env of HIV isolate 6405.v4.c34 (clade D) (HIV)
[18] = molecular target: Env of HIV isolate BJOX028000.10.3 (clade AE) (HIV)
[19] = molecular target: Env of HIV isolate MS208.A1 (clade A) (HIV)
[20] = molecular target: Env of HIV isolate CNE31 (clade C) (HIV)
[21] = molecular target: Env of HIV isolate 3168.v4.c10 (clade C) (HIV)
[22] = molecular target: HIV Env of isolate ZM233.6 (HIV)
[23] = molecular target: Env of HIV isolate HT593.1 (clade B) (HIV)
[24] = molecular target: Env of HIV isolate CNE30 (clade C in Table 7) (HIV)
[25] = molecular target: Env of HIV isolate CNE19 (clade BC) (HIV)
[26] = molecular target: Env of HIV isolate DU156.12 (clade C) (HIV)
[27] = molecular target: Env of HIV isolate 3589.v1.c4 (clade AC) (HIV)
[28] = molecular target: Env of HIV isolate CE703010217.B6 (clade C) (HIV)
[29] = molecular target: Env of HIV isolate CAP256.206.C9 (clade C) (HIV)
[30] = molecular target: Env of HIV isolate ZM106.9 (clade C) (HIV)
[31] = molecular target: HIV Env of isolate ZM109.4 (HIV)
[32] = molecular target: HIV Env of isolate 3817.v2.c59 (HIV)
[33] = molecular target: Env of HIV isolate 0921.v2.c14 (clade C) (HIV)
[34] = molecular target: Env of HIV isolate THRO.18 (clade B) (HIV)
[35] = molecular target: HIV Env of isolate CNE21 (HIV)
[36] = molecular target: Env of HIV isolate UG037.8 (clade A) (HIV)
[37] = molecular target: Env of HIV isolate 25925-2.22 (clade C) (HIV)
[38] = molecular target: Env of HIV isolate UG021.16 (clade D) (HIV)
[39] = molecular target: HIV Env of isolate X2088.c9 (HIV)
[40] = molecular target: Env of HIV isolate QH0692.42 (clade B) (HIV)
[41] = molecular target: Env of HIV isolate BJOX025000.01.1 (clade AE) (HIV)
[42] = molecular target: Env of HIV isolate 3988.25 (clade B) (HIV)
[43] = molecular target: HIV Env of isolate CE703010217.B6 (HIV)
[44] = molecular target: Env of HIV isolate T280-5 (clade AG) (HIV)
[45] = molecular target: HIV Env of isolate ZM214.15 (HIV)
[46] = molecular target: Env of HIV isolate 0330.v4.c3 (clade A) (HIV)
[47] = molecular target: HIV Env of isolate CH070.1 (HIV)
[48] = molecular target: Env of HIV isolate 3415.v1.c1 (clade A) (HIV)
[49] = molecular target: HIV Env of isolate CNE58 (HIV)
[50] = molecular target: Env of HIV isolate CH070.1 (clade BC) (HIV)

B1: ePGT121.18.17 (ePGT121.18.H17 VH and ePGT121.17.L1 VL) (antibody, V domains shown)
VH: QMQLQESGPGLVKPGETLSLTCSVSGASISSSYWSWLRETPGKGLEWIGYTHHSGDTNYAPSLKSRVTIGLDPSKNQVSLSLTSVTAADTAVYYCARTLHGRRIYGVVAFNEYYTYFYWPTWGKGTQVTVSS
VL: SDISVAPGETVRITCGGESIGSRAVQWYQHRPGQAPRLIIYNNQDRPPGIPERFSGSPDIDFGTTATLTISNVEAGDEATYYCHIWDSRRPTNWELGPGTTLTVL
IC50, pseudovirus neutralization [1]: 0.004 µg/mL
IC50, pseudovirus neutralization [2]: 0.012 µg/mL
IC80, pseudovirus neutralization [3]: 0.011 µg/mL
IC50, pseudovirus neutralization [4]: > 50 µg/mL
IC50, pseudovirus neutralization [5]: 0.004 µg/mL
IC50, pseudovirus neutralization [6]: 0.041 µg/mL
IC80, pseudovirus neutralization [7]: 0.011 µg/mL
IC80, pseudovirus neutralization [8]: 0.02 µg/mL
IC50, pseudovirus neutralization [9]: > 50 µg/mL
IC50, pseudovirus neutralization [10]: 0.104 µg/mL
IC50, pseudovirus neutralization [11]: 0.332 µg/mL
IC80, pseudovirus neutralization [12]: 0.008 µg/mL
IC50, pseudovirus neutralization [13]: 0.008 µg/mL
IC80, pseudovirus neutralization [14]: > 50 µg/mL
IC50, pseudovirus neutralization [15]: 0.003 µg/mL
IC50, pseudovirus neutralization [16]: 1.2 µg/mL
IC50, pseudovirus neutralization [17]: 0.004 µg/mL
IC50, pseudovirus neutralization [18]: 0.338 µg/mL
IC50, pseudovirus neutralization [19]: > 50 µg/mL
IC50, pseudovirus neutralization [20]: 0.089 µg/mL
IC50, pseudovirus neutralization [21]: 0.053 µg/mL
IC80, pseudovirus neutralization [22]: 0.065 µg/mL
IC50, pseudovirus neutralization [23]: 0.014 µg/mL
IC50, pseudovirus neutralization [24]: 0.018 µg/mL
IC50, pseudovirus neutralization [25]: 0.003 µg/mL
IC50, pseudovirus neutralization [26]: 0.003 µg/mL
IC50, pseudovirus neutralization [27]: 2.73 µg/mL
IC50, pseudovirus neutralization [28]: 0.005 µg/mL
IC50, pseudovirus neutralization [29]: 0.004 µg/mL
IC50, pseudovirus neutralization [30]: 0.004 µg/mL
IC80, pseudovirus neutralization [31]: > 50 µg/mL
IC80, pseudovirus neutralization [32]: 17.9 µg/mL
IC50, pseudovirus neutralization [33]: 0.189 µg/mL
IC50, pseudovirus neutralization [34]: > 50 µg/mL
IC80, pseudovirus neutralization [35]: 0.005 µg/mL
IC50, pseudovirus neutralization [36]: 0.009 µg/mL
IC50, pseudovirus neutralization [37]: 0.011 µg/mL
IC50, pseudovirus neutralization [38]: 0.013 µg/mL
IC80, pseudovirus neutralization [39]: 0.017 µg/mL
IC50, pseudovirus neutralization [40]: 0.035 µg/mL
IC50, pseudovirus neutralization [41]: > 50 µg/mL
IC50, pseudovirus neutralization [42]: 0.004 µg/mL
IC80, pseudovirus neutralization [43]: 0.016 µg/mL
IC50, pseudovirus neutralization [44]: 0.006 µg/mL
IC80, pseudovirus neutralization [45]: 0.294 µg/mL
IC50, pseudovirus neutralization [46]: 0.012 µg/mL
IC80, pseudovirus neutralization [47]: 0.007 µg/mL
IC50, pseudovirus neutralization [48]: 0.062 µg/mL
IC80, pseudovirus neutralization [49]: 0.195 µg/mL
IC50, pseudovirus neutralization [50]: 0.003 µg/mL

B2: ePGT121.15 (ePGT121.15.H6 VH and ePGT121.15.L1 VL) (antibody, V domains shown)
VH: QMQLQESGPGLVKPGETLSLTCSVSGASISSSYWSWLRETPGKGLEWIGYTHHSGDTNYAPSLKSRVHLGLHPSKNQVSLSLTSVTAADTAVYYCARTLHGRRIYGVVAFNEFFTYFYWEVWGKGTQVTVSS
VL: SDISVAPGETVRISCGGESIGSRAVQWYQHRAGQAPKLIIYNNQDRPPGIPERFSGSPDIDFGTTATLTITNVEAGDEATYYCHIWDSRRPTNWVFGGGTTLTVL
IC50, pseudovirus neutralization [1]: 0.002 µg/mL
IC50, pseudovirus neutralization [2]: 0.007 µg/mL
IC80, pseudovirus neutralization [3]: 0.012 µg/mL
IC50, pseudovirus neutralization [4]: > 50 µg/mL
IC50, pseudovirus neutralization [5]: 0.003 µg/mL
IC50, pseudovirus neutralization [6]: 0.056 µg/mL
IC80, pseudovirus neutralization [7]: 0.009 µg/mL
IC80, pseudovirus neutralization [8]: 0.019 µg/mL
IC50, pseudovirus neutralization [9]: > 50 µg/mL
IC50, pseudovirus neutralization [10]: 0.249 µg/mL
IC50, pseudovirus neutralization [11]: 0.249 µg/mL
IC80, pseudovirus neutralization [12]: 0.006 µg/mL
IC50, pseudovirus neutralization [13]: 0.004 µg/mL
IC80, pseudovirus neutralization [14]: > 50 µg/mL
IC50, pseudovirus neutralization [15]: 0.002 µg/mL
IC50, pseudovirus neutralization [16]: 4.87 µg/mL
IC50, pseudovirus neutralization [17]: 0.003 µg/mL
IC50, pseudovirus neutralization [18]: 0.363 µg/mL
IC50, pseudovirus neutralization [19]: > 50 µg/mL
IC50, pseudovirus neutralization [20]: 0.042 µg/mL
IC50, pseudovirus neutralization [21]: 0.026 µg/mL
IC80, pseudovirus neutralization [22]: 0.073 µg/mL
IC50, pseudovirus neutralization [23]: 0.008 µg/mL
IC50, pseudovirus neutralization [24]: 0.008 µg/mL
IC50, pseudovirus neutralization [25]: 0.004 µg/mL
IC50, pseudovirus neutralization [26]: 0.002 µg/mL
IC50, pseudovirus neutralization [27]: 0.229 µg/mL
IC50, pseudovirus neutralization [28]: 0.004 µg/mL
IC50, pseudovirus neutralization [29]: 0.003 µg/mL
IC50, pseudovirus neutralization [30]: 0.002 µg/mL
IC80, pseudovirus neutralization [31]: > 50 µg/mL
IC80, pseudovirus neutralization [32]: 7.22 µg/mL
IC50, pseudovirus neutralization [33]: 0.454 µg/mL
IC50, pseudovirus neutralization [34]: > 50 µg/mL
IC80, pseudovirus neutralization [35]: 0.004 µg/mL
IC50, pseudovirus neutralization [36]: 0.004 µg/mL
IC50, pseudovirus neutralization [37]: 0.007 µg/mL
IC50, pseudovirus neutralization [38]: 0.006 µg/mL
IC80, pseudovirus neutralization [39]: 0.01 µg/mL
IC50, pseudovirus neutralization [40]: 0.015 µg/mL
IC50, pseudovirus neutralization [41]: > 50 µg/mL
IC50, pseudovirus neutralization [42]: 0.004 µg/mL
IC80, pseudovirus neutralization [43]: 0.012 µg/mL
IC50, pseudovirus neutralization [44]: 0.004 µg/mL
IC80, pseudovirus neutralization [45]: 0.126 µg/mL
IC50, pseudovirus neutralization [46]: 0.006 µg/mL
IC80, pseudovirus neutralization [47]: 0.004 µg/mL
IC50, pseudovirus neutralization [48]: 0.017 µg/mL
IC80, pseudovirus neutralization [49]: 0.075 µg/mL
IC50, pseudovirus neutralization [50]: 0.001 µg/mL

Source: patent US20210292396A1
